± gives the uncertainty stated by the source.
test: amyloid nucleation score (Sup35N fusion, yeast selection) (log enrichment); library NNK2; higher = more nucleation; inactive = no reads after selection
How it was run: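 Sup35N fusions to peptides of 20 random codons were expressed in psi-negative yeast, induced 24 hours with 100 μM copper sulfate, and grown 7 days at 30°C on medium lacking adenine and uracil. Input and output plasmid inserts were sequenced by Illumina. The nucleation score is the DiMSum log enrichment of output over input reads, centred on the mode score of non-aggregating sequences. Sequences with under 100 input reads were excluded.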

Row | Substance | amyloid nucleation score
1 | ILINCSRWEGRTSCVTLAQQ | 2.27 ± 0.12
2 | LVRPSGANPSCWAIINRGEI | 10.63 ± 0.079
3 | SGPLVWLLLWQFNDGLCGWG | -0.656 ± 0.49
4 | GVLFAELLIFVVKSSVVV | 2.01 ± 0.23
5 | IRVYRGGLFNSLKKENVGAC | inactive
6 | HSCSYRLLSMYTRLRTLVSG | -0.828 ± 0.64
7 | TLPCFRVFYVTFQYSNHLLS | 8.55 ± 0.042
8 | KGWNMHSPMRALQHAETVGT | 0.859 ± 0.3
9 | KWGVAFNCSYNGVDNVNFWC | 6.807 ± 0.058
10 | AHHRCHWYECVMMPRHGPRP | 1.26 ± 0.33
11 | FYGFL | inactive
12 | ICVYSTRTDKMSCRPF | 0.856 ± 0.6
13 | VLAAT | -0.815 ± 0.55
14 | PVDVIHSRFVTGHFD | -0.853 ± 0.78
15 | RLRAQSHCAVAAGRNMEPWA | 5.986 ± 0.043
16 | NQSWRVVRQVCVEETRMMCG | 0.89 ± 0.23
17 | SIFMYMYKSFFMGNYINGGM | 1.03 ± 0.27
18 | VIYKSLHRLVISRVNVFFPV | -0.263 ± 0.65
19 | YTSWDMYIEFIMSLQMYSVG | -0.729 ± 1.1
20 | NENKGNF | -0.947 ± 0.54
21 | LVHPALVVWKQYWVVRLRDV | 6.43 ± 0.044
22 | STGILRS | inactive
23 | FNMHI | 0.8 ± 0.8
24 | QTLMLRSCYNWYPCGAAVVP | 2.5 ± 0.093
25 | RKTLLLKTRACPSPLFWLDT | inactive

Row | Substance | amyloid nucleation score
26 | PVLVGESHSIGL | 0.863 ± 0.24
27 | SPHNTARLESAEDQSSMCEP | 1.55 ± 0.23
28 | PSVGYSITWGNILLYRIGFR | -1.19 ± 1
29 | SWIIGVWIR | -0.287 ± 0.45
30 | TSFQVFINYVSL | 7.605 ± 0.046
31 | FLRLHE | inactive
32 | SNCGVLD | inactive
33 | IVCPKSGNAVVYGLMTMNNK | 0.329 ± 0.62
34 | LCEISRASPQGGDRDRAMGK | -0.018 ± 0.55
35 | WMRRAVAAND | 0.186 ± 0.54
36 | FYVYFVCEKIES | -0.076 ± 0.79
37 | YFYYRFGHDVVF | inactive
38 | LTYYTNRTQYLML | -0.424 ± 1.1
39 | RSYSGVFT | -0.926 ± 0.48
40 | GFSVSARVMIDLPYVEVRFS | 0.07 ± 0.74
41 | CSCMDRFL | 1.41 ± 0.15
42 | TLKACKNFYGGIFCNHGSES | -0.72 ± 1.1
43 | CESWMGAKTITLELTGGDSE | 0.664 ± 0.38
44 | IWVGSILTQSPVVDGYFRCR | 0.145 ± 0.35
45 | TISMEVEYCV | -0.1 ± 1
46 | KDRDNVTGNSVVVRLRRRVL | -0.296 ± 0.54
47 | SLCQSLDSWCYFLLWHWQWY | -0.637 ± 1.1
48 | VVNLIVKDDPWEGWLKSLVW | 2.46 ± 0.18
49 | IWLVQGTAFPGMLSGQGWLL | 0.147 ± 0.76
50 | RLGYILNFELNYLII | 0.856 ± 0.17

Row | Substance | amyloid nucleation score
51 | KRFGNFMTLRTLRVT | 1.42 ± 0.14
52 | LCNKVL | 0.27 ± 0.27
53 | FDKCLDKLMDKEKHALTFPQ | -0.453 ± 1.1
54 | LIMRIVWGGLQDQGSVRSSR | 0.855 ± 0.35
55 | VFFISEIRPKFFLTLPRTAL | 4.87 ± 0.096
56 | RLLAIRIVILYSINCVLSLW | 0.129 ± 0.42
57 | LNCVFLSLSQTGGSCELDFV | 7.007 ± 0.043
58 | GVLMCVAVYRFVCMKRSGML | 0.039 ± 0.19
59 | LALSTCFYSWIVLAMFFHRK | 3.16 ± 0.11
60 | YRCIMVATMWGPRVELGR | 0.522 ± 0.39
61 | IILRCNKDFEALACIVVSRR | inactive
62 | IFNCLFDNGKDVYFGILIDF | 2.85 ± 0.081
63 | CETLSGMRGLCRKKTDVPDI | -0.036 ± 0.63
64 | RSSCRRNSYLRQLVMSLVRY | -0.105 ± 1.1
65 | SSQSHGGRFQIEYFW | -0.059 ± 0.33
66 | GTYAKSMLSSKVVAG | 1.48 ± 0.18
67 | AAHQMMCRFGPIPF | 1.22 ± 0.23
68 | VSITISTTCSNKGS | 1.29 ± 0.22
69 | RNCACCEWL | 4.58 ± 0.052
70 | SVTPWTMNNSQYILMAYRVK | 0.283 ± 0.34
71 | CFCKKCWVDSLLRRRVNNFH | -0.737 ± 1.1
72 | GRLNPPLLLRIRSVSYAIPV | 0.783 ± 0.58
73 | HRVWTVIMWGS | 0.699 ± 0.44
74 | PMVDRMMDASRWLPLDY | 0.109 ± 0.45
75 | IWVYFTQHRWRLGKNVGQSC | 0.586 ± 0.51

Row | Substance | amyloid nucleation score
76 | HGAVGCAS | -0.002 ± 1
77 | RIISHDSCRVIFGKFRVDVW | 1.23 ± 0.57
78 | CGKLSLLNQVWIVSQPMPGQ | 7.57 ± 0.064
79 | SYPDELNLEFGCYHQSWTYF | 3.67 ± 0.058
80 | FQLPFIVFRRMIVYLKWRWG | -1.05 ± 0.78
81 | RSNRYGRDWNGVGTKWLFHD | -0.395 ± 0.45
82 | SALPDSTNRIASVGGISPGS | 0.489 ± 0.46
83 | RTLNGADFS | 0.486 ± 0.8
84 | SPQRFDLGYGVYVCDTPK | -0.231 ± 0.38
85 | NCKYVVTMMLTSGLCAENIW | -0.81 ± 1
86 | NKVFSFDYVVNNE | inactive
87 | FSQYCMALLIVNQEFWACCW | -0.944 ± 0.45
88 | NARFSFKTLRYGGVLRKYPL | -0.363 ± 1.1
89 | PECVLVSFLRRAFELFAMCN | inactive
90 | NLAGKGAITDRFSQVRSGQS | 1.4 ± 0.25
91 | SVMPMRYLVCVILLGRRSRT | 0.765 ± 0.16
92 | ICEVRIFKLNMVVCSLYYMV | -1.12 ± 0.76
93 | GKMTPLLVNQTVSYCMLSSM | 6.273 ± 0.035
94 | SAQNDEKFLDPVSVIPRCKS | 0.443 ± 0.56
95 | VVSYFCCLDCSLNAYS | 9.384 ± 0.043
96 | PLSLYNFIFYNAEVPYVVVT | 1.84 ± 0.1
97 | LRLTYSWSYSCLLITNQRQN | -0.009 ± 0.65
98 | SCVSTYDFNSIR | -0.484 ± 0.25
99 | NMQFSSTFRYSGYYYLVEHW | 1.59 ± 0.13
100 | LYLTWCKTLSDNLAL | -1.15 ± 0.76

Row | Substance | amyloid nucleation score
101 | GMNWGWRFVNIFY | 5.848 ± 0.031
102 | NNFATLSKL | inactive
103 | KRIPSSWWFVGLVGITWRPA | 0.826 ± 0.29
104 | SPSHGVRNP | 1.51 ± 0.34
105 | TSNSII | -0.876 ± 0.49
106 | VYTSYGSRSFTFNRFNAWTD | -0.97 ± 0.78
107 | DTIGAATLTITVWNSFMVGP | 4.15 ± 0.076
108 | FSSEIRTLGQELVFGVISKA | -0.307 ± 0.76
109 | AEDMSQARA | 1.15 ± 0.15
110 | VNMFSFHYFHSVMRFLFYRW | -0.751 ± 0.41
111 | AIFGFTVVLVMFMRFLQDTC | 0.732 ± 0.22
112 | DLAPLLR | 0.132 ± 0.56
113 | LWILNNFGTIIFRTSHYKGV | 7.4 ± 0.078
114 | GALTQSVLIYRH | 2.12 ± 0.13
115 | GLLEVIF | 0.119 ± 0.74
116 | WLIFLTVISISCCDQGVRF | 7.401 ± 0.028
117 | NRSTKTMSYWPLVRNLLT | 1.51 ± 0.3
118 | TLSKYCEDKFEWFCIAVICR | 6.95 ± 0.04
119 | IVDLNLGSEESLFSYLGMSV | -2.45 ± 0.54
120 | KIAWLTLHLTMWFST | 0.329 ± 0.41
121 | RMNEACTWTLIVYFYRSLL | 1.5 ± 0.12
122 | YVMSVRSAIRPIGSCVKKEY | 0.101 ± 0.76
123 | LRNDDIY | -0.533 ± 0.39
124 | NEIASEYSYRPLLRGWSS | -0.119 ± 0.4
125 | FGIERCRLYGNFYCVAVLGS | inactive

Row | Substance | amyloid nucleation score
126 | SKPGNIKWYSGFSKRQREAA | inactive
127 | DLDFIKDLTAKLY | -0.183 ± 1
128 | MSAYR | -0.018 ± 0.65
129 | HRVRIINCKKIWGNALWVRL | 1.15 ± 0.14
130 | NARQSLADSSAVRPDARTLI | 0.456 ± 0.45
131 | YCLELIGSLTHALPVKSLLV | inactive
132 | RIASLTSLGGNMNCAVHSFE | -0.427 ± 1.1
133 | EFCIHVSVLINPRGSNYDKW | -0.487 ± 1.1
134 | QCTHPGLVVIYRSLAKDYLS | -0.285 ± 0.48
135 | VNCCDFVVC | -0.063 ± 0.49
136 | FCEWGSEYWGNMDCDACDTA | -1.09 ± 0.76
137 | VPLHDARTRM | 0.637 ± 0.24
138 | EYSLCRMG | -0.155 ± 0.28
139 | QFRTICKLWA | -0.099 ± 0.42
140 | VYLKIAGTVIDRFTAHVLLM | -1.43 ± 0.75
141 | TALFGISMVCSGRG | -0.583 ± 1.1
142 | LSARFHHAKFLNYSDSRVGQ | inactive
143 | RNKCYLLCLR | -0.384 ± 0.26
144 | VLSEYGDTNYKIQGRATCGK | 0.928 ± 0.6
145 | NYYGSVTRHFLSFLF | inactive
146 | GFSPSMECHVMEAHLDMRVR | 0.227 ± 0.21
147 | CKPAVPMLN | 2.49 ± 0.076
148 | NCWISIYNMFLLRRRMMGMG | -0.611 ± 0.63
149 | VGPVNQRWGVTISLAPEVCF | 0.553 ± 0.57
150 | SIKGIEVEYQGFRVCYSTVY | inactive

Row | Substance | amyloid nucleation score
151 | RPPPHCSCSSYSWDMYCILN | 8.58 ± 0.072
152 | INSQVDGFSEWPGVVQSKTL | -0.157 ± 0.38
153 | QGFVPHRSIWHTSNLSDWFM | inactive
154 | IKSVFMCYWGLDAVGVTAER | 8.785 ± 0.047
155 | PNDLLHLSRLIQDMWMINFN | inactive
156 | FISGYLSETVMVLVDRRLRC | -0.047 ± 1.1
157 | FWPSQNYRHFLTHRGRRRRS | 0.552 ± 0.66
158 | GTLELMHETWVPSLYPVRMQ | 0.571 ± 0.4
159 | RTVEWRDNYLLGRILLFNPV | -0.187 ± 0.55
160 | NYWGVARKFEFSDECLFLDG | 0.596 ± 0.54
161 | RVRIVPDCFNVAACGGWYMD | -0.062 ± 0.45
162 | ICGPLTRRVIDCGAYTKY | -0.19 ± 0.26
163 | YKDEGINEPYTVRTVHKLTT | 0.215 ± 0.76
164 | WFMFDFFYF | inactive
165 | RASVYCFLEHG | 3.42 ± 0.049
166 | MVPCWRFQSMC | 0.961 ± 0.81
167 | LNRVQLNLRGQRITLSHYQI | -0.536 ± 1.1
168 | DRGTGNRGSCDRSYLDSGKV | 0.963 ± 0.29
169 | HEPNSYHPRVGLIQELWHCG | 0.473 ± 0.45
170 | VTGNKEVMKIRCWVAHEESY | 0.436 ± 0.49

From the supplement of paper PMC12042874
